Experimental data taken from patent publication US20120058051A1 (US Dept. of Health and Human Services, published 2012).

Experiments:
[1] = target: T1, human ROR1-ECD (ROR1-derived extracellular domain fragment without Fc) (human, UniProt Q01973 30-406); assay: SPR (BIACORE X100), ROR1-ECD coupled to CM5 chip, bivalent IgG injected, 1:1 Langmuir model
T1 construct: extracellular domain; also called hROR1ECD; ROR-ECD

Fc-hROR(d3) = target: T2, Fc-hROR(d3) (human, UniProt Q01973 308-406, limits assumed); assay: ELISA, coated domain construct
T2 construct: domain: d3-Kringle; Order from the name; not shown: human Fc region

Fc-hROR1(d2d3) = target: T3, Fc-hROR1(d2d3) (human, UniProt Q01973 161-406, limits assumed); assay: ELISA, coated domain construct
T3 construct: domain: d2-Frizzled and d3-Kringle; Order from the name; not shown: human Fc region

Fc-hROR1(d2) = target: T4, Fc-hROR1(d2) (human, UniProt Q01973 161-307, limits assumed); assay: ELISA, coated domain construct
T4 construct: domain: d2-Frizzled; Order from the name; not shown: human Fc region
T4 sequence (Q01973 161-307 limits assumed): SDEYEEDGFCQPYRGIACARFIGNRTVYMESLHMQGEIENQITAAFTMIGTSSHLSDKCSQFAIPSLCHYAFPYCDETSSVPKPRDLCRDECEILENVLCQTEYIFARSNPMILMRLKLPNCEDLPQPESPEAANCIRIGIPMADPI

T2 sequence (Q01973 308-406 limits assumed): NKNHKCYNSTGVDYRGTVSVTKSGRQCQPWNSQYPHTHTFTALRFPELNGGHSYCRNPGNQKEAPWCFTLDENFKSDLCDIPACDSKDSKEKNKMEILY
T3 sequence (Q01973 161-406 limits assumed): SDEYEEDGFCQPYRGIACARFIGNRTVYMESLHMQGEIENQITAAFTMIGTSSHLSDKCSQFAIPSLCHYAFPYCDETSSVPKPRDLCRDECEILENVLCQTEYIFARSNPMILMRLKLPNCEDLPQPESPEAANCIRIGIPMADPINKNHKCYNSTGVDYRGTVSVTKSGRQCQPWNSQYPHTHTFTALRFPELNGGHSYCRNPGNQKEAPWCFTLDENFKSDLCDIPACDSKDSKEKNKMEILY
T1 sequence (Q01973 30-406): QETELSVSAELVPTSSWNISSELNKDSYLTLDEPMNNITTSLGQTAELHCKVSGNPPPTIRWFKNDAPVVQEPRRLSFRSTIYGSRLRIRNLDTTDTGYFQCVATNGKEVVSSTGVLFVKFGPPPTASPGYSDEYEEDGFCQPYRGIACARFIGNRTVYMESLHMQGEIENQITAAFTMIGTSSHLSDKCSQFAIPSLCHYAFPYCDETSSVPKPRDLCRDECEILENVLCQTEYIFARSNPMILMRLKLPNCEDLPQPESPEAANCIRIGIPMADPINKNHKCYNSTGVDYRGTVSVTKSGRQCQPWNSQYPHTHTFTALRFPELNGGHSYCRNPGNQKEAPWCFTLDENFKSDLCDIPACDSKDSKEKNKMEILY

B1: mouse monoclonal antibody (mAb) 2A2 (antibody, mouse IgG1, V domains shown)
VH: QVQLQQSGAELVRPGASVTLSCKASGYTFSDYEMHWVIQTPVHGLEWIGAIDPETGGTAYNQKFKGKAILTADKSSSTAYMELRSLTSEDSAVYYCTGYYDYDSFTYWGQGTLVTVSA
VL: DIVMTQSQKIMSTTVGDRVSITCKASQNVDAAVAWYQQKPGQSPKLLIYSASNRYTGVPDRFTGSGSGTDFTLTISNMQSEDLADYFCQQYDIYPYTFGGGTKLEIK
notes: also called mouse mAb 2A2
Kd [1]: 0.1 nM | binding result (Fc-hROR(d3)): no binding | binding result (Fc-hROR1(d2d3)): no binding | binding result (Fc-hROR1(d2)): no binding
